# According to the DeepSol protein solubility set:
# Assay: soluble on expression in E. coli; label from the status in PepcDB or PDB records
row,Sequence,soluble on expression in E. coli
1,MGSDKIHHHHHHMNFLDGHLFPENQQPLIITAAPYAPSWMPSDFPEDIAVTMEDQIQKAVDCYNAGATVLHLHVRELDGKGSKRLSKFNELIAGVRARVPEMIIQVGGSISFAPESEGAAAKWLSDDTRHMLAELEPTPDQVTVTVNTSQMNILEQFDHRDIVGSSMEDPEVFNAYKEMTVPAQPGWVEEHVRRLTAAGIQSAFQCYNLNSFESVERLMRRGIYKGPLVLNWVAIGGGMDSPSVYSLANFVRAVPDGAVLTVESSVCNVLPVNTMGIAMGLHVRCGTEDTLWNQTRTKKMGTVAQIEQLVRISEEMSRPIATARQAREMCRIGEFYDTVDETLQANGFAPNRNGGQQGFLRKVA,not soluble
2,MSLKIPEAVNHINVQNNIDLVDGKTNPNKATKALQKNILRVTNSSSSGISEKHLDHCANTVKNFLRKSIAAQSYSKMFSQGTSFKSLNLSIEAPSGARSSFRSLEHLDKVSRHYISEIIQKVHPLSSDERHLLSIIINSNFNFRHQSNSNLSNNILNIKSFDKIQSENIQTHKNTYSEDIKEISNHDFVFFGVEISNHQEKLPLNKTHHTVDFGANAYIIDHDSPYGYMTLTDHFDNAIPPVFYHEHQSFFLDNFKEVVDEVSRYVHGNQGKTDVPIFNTKDMRLGIGLHLIDFIRKSKDQGFREFCYNKNIDPVSLDRIINFVFQLEYHIPRMLSTDNFKKIKLRDISLEDAIKASNYEEINNKVTDKKMAHQALAYSLGNKKADIALYLLSKFNFTKQDVAEMEKMNNNRYCNLYDVEYLLSKDGANYKVLEYFINNGLVDVNKKFQKANSGDTMLDNAMKSKNPKMIDFLLKNGAILGKRFEIEGHHHHHH,soluble
3,MGSDKIHHHHHHMRIAPLPPLQCLVAFESAVRHASFTKAAAELHLTQSAISRQIAQLEDFLGRSLFVREHRALRLTIAGEGYAKHVQWLLASCSEATLDVMKRYGDMELTIACSSGVAVLWLTPRLGAFRAAHPNVRIRMIVRDGLASLSPAEFDVGLYYIRQRAEPHFTARRLFDEDVYPVCSPGYLAGRVLTPAGLVHETLLVQEDGQRQWMSWSEWFRLNHVQMPASPQAVVVNHYPQLVQMAILGQGVVLGWRHMIDACLSEGLLVRATQASASHGGGYYVVSPNDRSQNQAARLFTRWVFEQAEAQMGRAAS,not soluble
4,MGSDKIHHHHHHMNIIKFFNQTIDYIETTLEDKIDEKKIVQLSGYSYPMFSRIFSILTAYSLSEYIRLRRLTKAAFDLRKNEEKVIDIAFKYQYESPDSFSLAFKKYHNCTPMEVKQGKDFKIFSPIHLSLTIKGGKAMEISIKKKEKFIVGGIKAENIETFQCPKVWEELFKKVSFNDLEKLGNGNSYGVCYETTSSKSINYIAAFDVKNVSEAKKLGLDTMEIPEAEYAVVKLKGKIPNCIHEGWKYVMEVFFPEHGYKHAGTPDFELYSEGDMGSDNYEMELWVPIIKAE,not soluble
5,GMSRTLVLFDIDGTLLKVESMNRRVLADALIEVYGTEGSTGSHDFSGKMDGAIIYEVLSNVGLERAEIADKFDKAKETYIALFRERARREDITLLEGVRELLDALSSRSDVLLGLLTGNFEASGRHKLKLPGIDHYFPFGAFADDALDRNELPHIALERARRMTGANYSPSQIVIIGDTEHDIRCARELDARSIAVATGNFTMEELARHKPGTLFKNFAETDEVLASILTPKHS,soluble
6,MHCDLPCGVYDPAQARIEAESVKAVQEKMAGNDDPHFQTRATVIKEQRAELAKHHVSVLWSDYFKPPHFEKYPELHQLVNDTLKAMSAAKGSKDPATGQKALDYIAQIDKIFWETKKA,soluble
7,MSDESPAFALHSGSSRQRKSLEFRFQQSPRWAPYSSASDGNEQKTSLVNNSLTRPNSSNPQCLNEENGFDRDSTAISTSFRSLLSLSESSVPWETPTNNQSSSLTHCSYPRVFCNPVSVCENPEPDHTQEDSSTNPGSSIMMSTRNHQGSPVEEEVSPNSSSNDMLLDVERSNDTEVANPRSEQGSMTHQRCGICKKLLSQKSPWSSYKILRSRDMPATGVFPCHHVYHVECLDKATPTAQTRDPSCPVCSNTIGVMEQPLIAPETLQMALRSLRRSRTALELETVRVPSNDNQRRHNTRRSHKWDKLSCCLNISFSSSS,soluble
8,MISRVAQMYFSEHKRQAEIAQHLNLSQATVSRMLKRAEAEGIVRTSIIPPPGTYSDLEAQLRERFDLPEAIVVDCSEDRDGAIMARIGEAAAHFLEVTLSQNEIIGVSSWSQTIFKMVENIHPLKGAKARYIVQTLGGMGDPSVQTHATQITTRLARLTEAEPKLLPVPGVATSREAKLLMLADPFVRETIDLFGSITLAIVGVGAVEPSELLARSGNIFSTKELADLAQAGAVGDISLRFFDKDGKPVKTPLDDRVIGLPLENLSNVDRVIALAGGLKKTEAIAGALRTGVIDVLVTDKFTAERLVGQET,not soluble
9,MGSDKIHHHHHHMAATFGPRIARADENGQGSEHVALSWQKMDASGWRSGEASPAALHSDHHCRRGFAMSTRDADDRREYYRIEDTLALEFRPAGAVEDGLESEPGATLFSLLSDLHLMDYESQHLLRHISERDRTLANYLKVMNKRIDLLGQVMVQSLLKEIGEPRKVSLSEGGVSFRHDRALPVGQLLVLRMVLLPQGFGLELRARVIHAQPHDDEFEIGTEFEALSDAQRQLLARHILQKQAQQRRLARAGQGPLGEPGQPSST,not soluble
10,MMKTFHWKVDPDMGVDSEPQVSVVRFGDGYEQRRASGINNDLKKYSVTIRVDREDGPGLEGFLSQHNGVKAFLWTPPYGYRQIKVVCRKWSVKAGLLKTTFTATFEQVIS,not soluble
11,MAVLGRKSDRAVFDDGPVPRYEAVKQFIRSRIESGEWPPHHRVPSENDIVADLGVSRMTANRALRELASEGAITRVQGVGSFVAAHKGSTALLEVRNIADEIRERGHRHTSRITLLEEEQASTEVAEALGLAAKARVFHSIIVHAEDDVPIQIEDRFVNPAICPNYLEQDFTSMTPNVYLTLVAPITRTEQIVEAVLPKPWECKLLSIGRGEPCLMIRRRTWSEAANVTVAWLTYPGTRYRLEGVSQ,not soluble
12,MGSDKIHHHHHHMTSTLPVPEPHQSDSANTDANSLSWEEELDSAIFSFEDIQTELNYKQAQTALRNLVANLDLTPQEKTGLETEIADLETMLGKLDRMVVQIAAFGMVGRGKSSLLNSLVGQTVFETGPLHGVTRTAQTVNWSISEEAIGETERALRVTLPGVGQSQVKLIDTPGLDEVDGATRAVLAEQIAKQADLILFVISGDMTKLEYAALSQLREAGKPIILVFNKVDQYPEADRMAIYHKIRDERVRELLTPLEIVMAAASPLVKTAIRRPDGTRGIQLRTGNAQVEELKLKILEILHREGKALVALNTMLYADVVNEQLIERKLMIREQNANQLIWKAVMTKALAIALNPVTVVDILSSVVIDIALILGLSKLYGFSMTEAGAVQLLQKIALSMGGIGASELLANLGLSGLKTLLGISATATAGVALGPYISVAVTQGGVAGVSSYGIGQVTKVYLANGATWGPDGPKAVINRILANLDETSILNRIKDELLHKVRLRK,not soluble
13,MGSDKIHHHHHHMQVGTIFGHKNSEGTLVSSAAIIPYESKLASIGMVIVSSQCRGLGLGREVTEACIKATLEDTTLMLIATDEGRPLYERLGFAAVERIHKHLCDDYKEPESIPSMDVTIEELRSNDFRQLVQLDEGAMGVRRSRFLKQRTTQANQSLVAKDKAGNVIGYGLSILGPIHLIIGPIVAPNHEIACLILDRLACQHKGKLRMDVPSGHHTFLQHLQRRGFTEVNTPPVMAKQSAYEPRRNGTLFAIAAQVFG,not soluble
14,MALVQALVPREREPKLSILQMDRGDPQHSSHWCPEREKVKLLTLKPRETSKNILINFYRAFNLDKDVFIHQANHPLTVPSSVVMGDNGHTLAEDDKRPCFRVLPCYLERVSSGISISWISAPLPVGAMKHQLLCDLMDLITLSFWLAGQCMSLKATNMQHCKCSIATSDWAIELDRTDYKTLPSEYSILALLQVFAGKNCMDRVLLHVDVNYLKSLP,soluble
15,MGHHHHHHSHMTDCEFGYIYRLAQDYLQCVLQIPQPGSGPSKTSRVLQNVAFSVQKEVEKNLKSCLDNVNVVSVDTARTLFNQVMEKEFEDGIINWGRIVTIFAFEGILIKKLLRQQIAPDVDTYKEISYFVAEFIMNNTGEWIRQNGGWENGFVKKFEPKSGWMTFLEVTGKICEMLSLLKQYC,not soluble
16,SPVSKCPKKSESLWKGWDRKAQRNGLRSQVYAVNGDYYVGEWEDNVKHGKGTQVWKKKGAIYEGDWKFGKRDGYGTLSLPDQQTGKCRRVYSGWWKGDKKSGYGIQFFGPKEYYEGDWCGSQRSGWGRMYYSNGDIYEGQWENDKPNGEGMLRLKNGNRYEGCWERGMKNGAGRFFHLDHGQLFEGFWVDNMAKCGTMIDFGRDEAPEPTQFPIPEVKILDPDGVLAEALAMFRKTEEGD,soluble
17,KETVPYQIPYTPSELEELQQNIKLELEGKEQELALELLNYLNEKGFLSKSVEEISDVLRCSVEELEKVRQKVLRLE,soluble
18,MNALDLDVLQHARDWLASGRRVHLVTVVQTWGSAPRQAGAMLAVRDDGQVVGSVSGGCIEDDLIARARAGTLPERAERLTYGVTRDEATRFGLPCGGTLRLVAEPLAPRDAWLDEVLQAIAEHRLVRRTIDLHTGAAALEAAAPAEGPDFDGRMFRAVYGPHWRLLIIGANQTAQVRADIAATLDFQVIVCDPREEFHAAWHAPHATLVTTMPDDTVLEIGTDERTAIVALTHDPKLDDMVLLEALKSRAFYVGALGSRANQEKRRERLRLFDLGDEDIARLRGPVGLPIASRTPAEIAVAVAAELVWVRNTLGDREPSGAPLPAALAPAR,not soluble
19,MSTQVQDRIHDRRELTAVLLRALEQRHEVLDAIVDSEDHAEALTTVAGLLDTSEAYAEAVLNLTFRRLTKVERLRIQTELKDLDATLEWTSTDRPASTGRNFRLRPFTDTEEDAELFRRRCGEQVDDAGAQWSEDRVEKERTEGLSRVDDESAAWFVCEDTAENTAVGMVFGELSGREVDVAIWIAPDARKKGYGTAAVKHSRQELAAEFPGTVLVVR,not soluble
20,MALLCYNRGCGQRFDPETNSDDACTYHPGVPVFHDALKGWSCCKRRTTDFSDFLSIVGCTKGRHNSEKPPEPVKPEVKTTEKKELCELKPKFQEHIIQAPKPVEAIKRPSPDEPMTNLELKISASLKQALDKLKLSSGNEENKKEEDNDEIKIGTSCKNGGCSKTYQGLESLEEVCVYHSGVPIFHEGMKYWSCCRRKTSDFNTFLAQEGCTKGKHMWTKKDAGKKVVPCRHDLHQTGGEVTISVYAKNSLPELSRVEANSTLLNVIIVFEGEKEFDQNVKLWGVIDVKRSYVTMTATKIEITMRKAEPMQWASLELPAAKKQEKQKDDTTD,soluble
21,MAHHHHHHMLKVSSKEHYAEIKKKAEDSLGLVVHFSATWCEPCTAVNEHLTKQAAEYGDNVVFAEVDCGELGDVCEAEGVESVPFVAYFRTPLVGDDRRVERVADVAGAKFDQIDMNTHSLFGEKGGNRGSAEGLCHSGRLPALPHEAARGRNVHHRHPISSALRLYWSAV,not soluble
22,MSLGAIVEVITIKNYSLKSENYEAEIDIPKIRGLKDKNLEQRLNSSFMEDGKRLYHQFQERMEKIQSSKNKGYKSLSLSYSVKNNSKKFLSIEMTKNEIEASSYVSKVHYTIDKKRQIVLTLPMLFKDDKYIKVISDNIKEQMREQMKKDSTKSYFIDEGHHHHHH,not soluble
23,GPGSMEDAHMLVATDDADVAYFGIFDGHSNAECSAYVARELPQRLKKLPESITAEMLEKVCIEVDEAYMKTSTEGGTTGTFCVIRKDLTVTIANVGDSRILVCRGGKLIFATEDHKPYIPGETERIVACGGSVVSNRVDGDLAVSRAFGDASFKVKGTKDYRMQKVIAVPDVSVLQCEPNDFIILACDGVFEGNFSNEDVCQFVWEQQQNCWDDLAVVACRVCDEAIRCGSKDNISCLVVQLAEGASRVKAFGATSFVPGPPFPRNQQPCRAAYAQMAELGHTTTAAALQTRYQLLQAFSKNKLNSQPPVMRTAFEMSDEVDVETEWSFFGKGPAPGNEKNFFEALANTGNSS,not soluble
